In patent publication US20240150495A1 one finds OD 450 data, which are given here for 1 substance.

In assay [1] the target is human ανβ3 integrin (Chemicon) (human) (UniProt P06756). Put plainly: ELISA on coated human ανβ3 integrin (1 ug/ml), binder at 10 µg/ml; positive control.
The target is the same in assay [2]. Put plainly: ELISA on coated human ανβ3 integrin (1 ug/ml), binder at 0.002 µg/ml; positive control. (In general: In an ELISA, binding on a coated surface is turned into a signal by an enzyme label.)
Assay [3] has the same target. Description: ELISA on coated human ανβ3 integrin (1 ug/ml), binder at 0.010 µg/ml; positive control.
Assay [4] has the same target. Description: ELISA on coated human ανβ3 integrin (1 ug/ml), binder at 0.039 µg/ml; positive control.
The target is the same in assay [5]. Put plainly: ELISA on coated human ανβ3 integrin (1 ug/ml), binder at 0.156 µg/ml; positive control.
For assay [6] the target is unchanged. Description: ELISA on coated human ανβ3 integrin (1 ug/ml), binder at 0.625 µg/ml; positive control.
Assay [7] shares this target. Put plainly: ELISA on coated human ανβ3 integrin (1 ug/ml), binder at 2.500 µg/ml; positive control.

Chain of human ανβ3 integrin (Chemicon) (human) (P06756 31-1048 limits assumed, chain 1 of 2): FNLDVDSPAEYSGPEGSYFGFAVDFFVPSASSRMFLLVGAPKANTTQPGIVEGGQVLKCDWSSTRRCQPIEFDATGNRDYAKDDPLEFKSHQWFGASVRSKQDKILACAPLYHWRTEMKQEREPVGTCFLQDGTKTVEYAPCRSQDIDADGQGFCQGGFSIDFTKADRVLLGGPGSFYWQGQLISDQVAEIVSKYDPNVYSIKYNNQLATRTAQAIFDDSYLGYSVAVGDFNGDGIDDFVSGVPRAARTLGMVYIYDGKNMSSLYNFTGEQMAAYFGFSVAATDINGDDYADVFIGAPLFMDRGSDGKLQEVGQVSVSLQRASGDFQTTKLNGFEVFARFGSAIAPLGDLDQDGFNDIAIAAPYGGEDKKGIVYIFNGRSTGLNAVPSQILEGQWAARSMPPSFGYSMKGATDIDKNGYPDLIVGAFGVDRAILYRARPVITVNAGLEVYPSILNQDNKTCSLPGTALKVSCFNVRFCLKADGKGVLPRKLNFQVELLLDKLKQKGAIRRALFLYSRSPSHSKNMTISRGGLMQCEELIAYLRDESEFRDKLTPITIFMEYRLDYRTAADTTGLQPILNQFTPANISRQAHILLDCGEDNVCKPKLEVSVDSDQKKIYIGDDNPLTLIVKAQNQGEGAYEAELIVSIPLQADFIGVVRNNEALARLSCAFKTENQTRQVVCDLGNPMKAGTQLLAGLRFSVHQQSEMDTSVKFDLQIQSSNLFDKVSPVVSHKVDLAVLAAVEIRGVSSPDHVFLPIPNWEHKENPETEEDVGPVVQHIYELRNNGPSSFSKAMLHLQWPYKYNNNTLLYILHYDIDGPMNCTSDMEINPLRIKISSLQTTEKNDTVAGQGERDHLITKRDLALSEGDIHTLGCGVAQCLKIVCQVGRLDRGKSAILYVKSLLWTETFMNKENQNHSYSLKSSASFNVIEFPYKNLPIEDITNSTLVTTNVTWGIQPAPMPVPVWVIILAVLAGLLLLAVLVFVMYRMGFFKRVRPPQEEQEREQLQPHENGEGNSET
Chain of human ανβ3 integrin (Chemicon) (human) (P05106 27-788 limits assumed, chain 2 of 2, further chain): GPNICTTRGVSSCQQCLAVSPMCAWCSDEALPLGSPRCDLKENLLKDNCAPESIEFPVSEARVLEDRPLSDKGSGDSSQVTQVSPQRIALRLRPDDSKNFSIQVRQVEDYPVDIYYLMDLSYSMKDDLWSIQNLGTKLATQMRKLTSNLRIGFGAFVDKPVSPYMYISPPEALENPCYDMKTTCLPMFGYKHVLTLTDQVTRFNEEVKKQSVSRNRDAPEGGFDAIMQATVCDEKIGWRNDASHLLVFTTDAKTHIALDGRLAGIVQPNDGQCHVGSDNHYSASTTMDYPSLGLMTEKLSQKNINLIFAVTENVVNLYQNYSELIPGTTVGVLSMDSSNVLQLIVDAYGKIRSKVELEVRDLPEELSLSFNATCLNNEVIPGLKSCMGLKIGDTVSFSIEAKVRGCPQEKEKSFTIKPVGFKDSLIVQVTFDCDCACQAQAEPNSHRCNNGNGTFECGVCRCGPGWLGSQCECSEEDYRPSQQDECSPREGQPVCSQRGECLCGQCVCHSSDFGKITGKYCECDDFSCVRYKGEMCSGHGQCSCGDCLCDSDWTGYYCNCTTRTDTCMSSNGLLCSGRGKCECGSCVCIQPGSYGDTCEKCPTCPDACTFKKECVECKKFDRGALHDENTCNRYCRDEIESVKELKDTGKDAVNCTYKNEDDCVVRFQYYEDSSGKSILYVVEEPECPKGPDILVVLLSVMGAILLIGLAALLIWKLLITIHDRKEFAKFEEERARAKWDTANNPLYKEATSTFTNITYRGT

As for “commercial mouse anti human ανβ3 integrin mAb LM609 (Chemicon) (antibody)”, the OD 450 in assay [1] turned out to be 0.647 OD 450; in assay [2] it was 0.077 OD 450; in assay [3], 0.157 OD 450; in assay [4], 0.391 OD 450; in assay [5], 0.626 OD 450; in assay [6], 0.657 OD 450. In assay [7], this substance returned an OD 450 of 0.644 OD 450.
